Measured values as given in US6576442 (SUGEN, dated 2003).

Molecular target: T1, PYK-NN (PYK2 aa 2-285) fused to the LexA DNA binding domain (UniProt P0A7C2 1-202; Q14289 2-285)
T1 construct: Yeast two-hybrid bait
Test: yeast two-hybrid with heterologous baits
Protocol: The yeast strain L40 containing the reporter genes HIS3 and β-gal under control of upstream LexA-binding site, was used as a host for the two-hybrid screening. […] Yeast strain that express the LexA-PYKN fusion protein was transfected with human brain cDNA library (Clontech #HL404AB) fused to GAL4 transcriptional activation domain. Transformants were plated on agar selection medium lacking Uracil (Ura-), Tryptophane (Trp-), Leucine (Leu-) and Histidine (His-). Resulting colonies were isolated and retested for growth on -Ura-Trp-Leu-His plates and for β-galactosidase activity. Plasmid DNA was purified from colonies that were His+, β-gal+ and used for retransformation of yeast strains expressing heterologous baits to determine the specificity of the interaction.
The yeast two-hybrid system was used to identify proteins that interact with the amino-terminal domain of PYK2. The N-terminal domain of PYK2 was fused to the LexA DNA binding domain and screened a human brain cDNA library. […] The specificity of the interaction was further determined by transformation of this clone into a yeast strain expressing heterologous baits. An interaction was detected in yeast strain expressing either the PYK-N terminal domain, or a shorter version of PYK-N that was missing 48 amino acids from its C-terminal end.

T1 sequence (P0A7C2 other isoform, or with tags, fused parts or gaps limits assumed): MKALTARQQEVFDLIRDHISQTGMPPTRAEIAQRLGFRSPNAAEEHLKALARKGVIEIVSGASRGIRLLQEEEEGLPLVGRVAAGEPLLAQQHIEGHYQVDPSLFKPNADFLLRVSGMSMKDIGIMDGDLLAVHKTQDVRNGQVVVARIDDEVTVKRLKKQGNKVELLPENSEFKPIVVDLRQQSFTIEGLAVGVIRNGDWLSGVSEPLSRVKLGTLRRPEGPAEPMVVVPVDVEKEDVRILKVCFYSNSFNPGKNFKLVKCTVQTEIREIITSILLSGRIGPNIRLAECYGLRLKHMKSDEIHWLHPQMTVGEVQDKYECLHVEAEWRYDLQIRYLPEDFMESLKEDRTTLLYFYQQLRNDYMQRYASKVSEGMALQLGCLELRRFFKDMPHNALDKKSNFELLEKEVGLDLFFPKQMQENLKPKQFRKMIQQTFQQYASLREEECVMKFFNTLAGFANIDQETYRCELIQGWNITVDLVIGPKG

B1: original two hybrid clone containing amino acids 627-975 of hrdgB1, fused to the GAL4 transcriptional activation domain (other, not shown: large carriers)
chain: VKLRNVTANHRANDVIAAEDGPQVLVGRFMYGPLDMVALTGEKVDILVMAEPSSGRWVHLDTEITNSSGRITYNVPRPRRLGVGVYPVKMVVRGDQTCAMSYLTVLPRGMECVVFSIDGSFAASVSIMGSDPKVRPGAVDVVRHWQDLGYMILYITGRPDMQKQRVVSWLSQHNFPQGMIFFSDGLVHDPLRQKAIFLRNLMQECFIKISAAYGSTKDISVYSVLGLPASQIFIVGRPTKKYQTQCQFLSEGYAAHLAVLEASHRSRPKKNNSRMILRKGSFGLHAQPEFLRKRNHLRRTMSVQQPDPPAANPKPERAQSQPESDKDHERPLPALSWARGPPKFESVP
notes: The printed end may count the stop codon; also called GAL10-rdgB1
  binding result: no binding
